Experimental data reported in patent US20190248877A1 (Hoffmann-La Roche, published 2019).

T1: muTNC (recombinant murine TnC antigen) (mouse, biotin on the C-terminal avi-tag where used biotinylated (Example 5))
T1 construct: GST may have been cleaved off by thrombin; The text says this construct lacks the C domain; also called mouse TnC
T1 chain: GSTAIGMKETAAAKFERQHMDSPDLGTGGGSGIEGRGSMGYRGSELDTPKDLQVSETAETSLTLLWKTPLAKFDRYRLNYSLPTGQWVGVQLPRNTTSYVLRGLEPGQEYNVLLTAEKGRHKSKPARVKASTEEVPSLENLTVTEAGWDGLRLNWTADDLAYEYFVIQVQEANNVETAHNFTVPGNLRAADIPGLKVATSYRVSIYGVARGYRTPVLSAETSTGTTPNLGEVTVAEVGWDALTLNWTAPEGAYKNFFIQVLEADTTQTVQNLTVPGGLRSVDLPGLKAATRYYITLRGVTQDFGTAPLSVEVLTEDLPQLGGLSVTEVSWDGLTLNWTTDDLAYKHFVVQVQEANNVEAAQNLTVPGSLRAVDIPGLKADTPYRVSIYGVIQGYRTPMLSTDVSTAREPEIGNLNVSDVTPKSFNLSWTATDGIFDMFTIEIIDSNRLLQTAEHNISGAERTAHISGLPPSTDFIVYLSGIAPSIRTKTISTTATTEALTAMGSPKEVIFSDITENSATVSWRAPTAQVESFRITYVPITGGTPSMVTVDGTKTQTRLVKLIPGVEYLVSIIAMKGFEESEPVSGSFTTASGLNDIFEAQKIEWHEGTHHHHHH

T2: huTNC (recombinant human TnC antigen) (human, UniProt P24821 984-1798, biotin on the C-terminal avi-tag where used biotinylated (Examples 5 and 10))
T2 sequence: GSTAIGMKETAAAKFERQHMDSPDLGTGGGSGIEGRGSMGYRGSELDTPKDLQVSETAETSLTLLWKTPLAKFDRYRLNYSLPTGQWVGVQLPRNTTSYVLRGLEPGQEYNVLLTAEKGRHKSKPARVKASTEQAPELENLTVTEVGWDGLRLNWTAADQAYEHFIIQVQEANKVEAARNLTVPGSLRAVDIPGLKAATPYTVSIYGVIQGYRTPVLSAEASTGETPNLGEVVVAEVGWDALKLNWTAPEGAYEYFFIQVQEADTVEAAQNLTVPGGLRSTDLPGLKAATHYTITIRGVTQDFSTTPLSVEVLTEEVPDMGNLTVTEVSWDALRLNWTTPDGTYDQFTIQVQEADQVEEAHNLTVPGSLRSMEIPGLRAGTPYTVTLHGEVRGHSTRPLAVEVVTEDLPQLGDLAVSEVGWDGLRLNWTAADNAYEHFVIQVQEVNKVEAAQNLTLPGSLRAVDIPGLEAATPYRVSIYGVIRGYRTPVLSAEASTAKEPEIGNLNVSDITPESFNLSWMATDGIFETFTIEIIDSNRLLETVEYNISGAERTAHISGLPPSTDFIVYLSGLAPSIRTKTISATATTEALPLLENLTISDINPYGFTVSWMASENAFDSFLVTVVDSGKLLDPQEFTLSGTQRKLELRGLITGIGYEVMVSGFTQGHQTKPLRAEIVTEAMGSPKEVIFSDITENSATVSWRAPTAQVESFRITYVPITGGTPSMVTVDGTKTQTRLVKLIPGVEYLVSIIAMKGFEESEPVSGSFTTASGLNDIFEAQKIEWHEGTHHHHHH

T3: cynoTNC (recombinant cynomolgus TnC antigen) (cynomolgus, biotin on the C-terminal avi-tag where used biotinylated (Example 5))
T3 construct: GST may have been cleaved off by thrombin; The text says this construct lacks the C domain
T3 chain: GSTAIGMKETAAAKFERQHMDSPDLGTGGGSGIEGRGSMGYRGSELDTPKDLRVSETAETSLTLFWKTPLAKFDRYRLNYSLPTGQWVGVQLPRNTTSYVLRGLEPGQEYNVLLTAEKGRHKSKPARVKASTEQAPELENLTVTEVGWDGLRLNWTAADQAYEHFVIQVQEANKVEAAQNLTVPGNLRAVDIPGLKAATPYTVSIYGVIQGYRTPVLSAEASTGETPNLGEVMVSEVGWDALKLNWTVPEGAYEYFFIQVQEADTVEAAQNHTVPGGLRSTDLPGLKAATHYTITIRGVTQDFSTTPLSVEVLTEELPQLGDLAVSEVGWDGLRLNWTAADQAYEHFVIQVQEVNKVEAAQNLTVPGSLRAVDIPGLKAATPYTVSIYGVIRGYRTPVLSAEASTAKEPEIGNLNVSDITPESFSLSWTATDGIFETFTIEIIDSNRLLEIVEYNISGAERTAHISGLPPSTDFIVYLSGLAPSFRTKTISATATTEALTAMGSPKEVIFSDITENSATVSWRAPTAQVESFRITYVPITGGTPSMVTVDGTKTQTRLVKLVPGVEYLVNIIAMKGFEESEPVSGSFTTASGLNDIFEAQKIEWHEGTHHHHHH

T4: GST huTNC fn5 A1234 BC fn6 B (human, UniProt P24821 984-1798, biotin on the C-terminal avi-tag (BirA, site-specific))
T4 construct: also called Human GST-fused TnC fn5 A1234 BC fn6
T4 sequence: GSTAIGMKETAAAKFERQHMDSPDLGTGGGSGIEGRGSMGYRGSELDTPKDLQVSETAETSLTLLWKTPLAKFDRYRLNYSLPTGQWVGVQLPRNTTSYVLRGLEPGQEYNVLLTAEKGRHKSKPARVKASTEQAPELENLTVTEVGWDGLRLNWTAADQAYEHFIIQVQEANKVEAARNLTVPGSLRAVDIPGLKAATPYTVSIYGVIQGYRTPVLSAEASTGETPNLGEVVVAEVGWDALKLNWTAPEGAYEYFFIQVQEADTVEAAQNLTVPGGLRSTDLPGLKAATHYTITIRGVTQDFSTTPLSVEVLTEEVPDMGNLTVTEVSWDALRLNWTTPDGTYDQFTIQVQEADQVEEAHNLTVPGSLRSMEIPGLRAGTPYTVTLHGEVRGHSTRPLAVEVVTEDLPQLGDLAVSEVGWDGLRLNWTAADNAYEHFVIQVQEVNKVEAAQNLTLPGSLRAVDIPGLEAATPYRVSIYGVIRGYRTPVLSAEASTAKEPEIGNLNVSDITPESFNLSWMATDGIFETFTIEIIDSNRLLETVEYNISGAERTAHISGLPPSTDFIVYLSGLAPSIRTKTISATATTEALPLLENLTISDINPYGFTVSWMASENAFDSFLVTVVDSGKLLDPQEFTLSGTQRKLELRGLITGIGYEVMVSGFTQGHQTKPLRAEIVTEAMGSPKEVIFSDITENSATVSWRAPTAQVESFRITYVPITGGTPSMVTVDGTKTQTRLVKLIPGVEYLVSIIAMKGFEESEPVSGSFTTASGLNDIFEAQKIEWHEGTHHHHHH

T5: GST TNC hu fn5 B-C fn6 B (human, biotin on the C-terminal avi-tag (BirA, site-specific))
T5 chain: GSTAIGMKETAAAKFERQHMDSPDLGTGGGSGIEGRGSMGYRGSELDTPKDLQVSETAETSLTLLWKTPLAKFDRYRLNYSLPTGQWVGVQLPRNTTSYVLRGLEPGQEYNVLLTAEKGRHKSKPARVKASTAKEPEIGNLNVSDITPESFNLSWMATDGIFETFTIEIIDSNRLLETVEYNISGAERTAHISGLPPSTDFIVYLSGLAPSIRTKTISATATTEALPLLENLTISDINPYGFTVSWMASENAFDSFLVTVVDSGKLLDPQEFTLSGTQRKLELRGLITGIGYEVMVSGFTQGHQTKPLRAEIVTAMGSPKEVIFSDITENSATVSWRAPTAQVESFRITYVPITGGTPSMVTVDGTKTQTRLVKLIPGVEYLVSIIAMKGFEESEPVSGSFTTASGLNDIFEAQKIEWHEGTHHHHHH


Legend:
[1] = molecular target: T1, muTNC (recombinant murine TnC antigen); assay: SPR Biacore T200, biotinylated TnC on SA chip, IgG as analyte, 1:1 fit (apparent, bivalent)
Method: (§1) Binding of the anti-TnC IgGs 18D4, 11C7 and the Fab fragment of anti-TnC 18D4 to human, murine and cynomolgus TnC (antigens according to Table 4) was assessed by surface plasmon resonance (SPR). All SPR experiments were performed on a Biacore T200 at 25° C. with HBS-EP as running buffer (0.01 M HEPES pH 7.4, 0.15 M NaCl, 3 mM EDTA, 0.005% Surfactant P20, Biacore, Freiburg/Germany).
(§2) A 20 μg/ml stock solution of biotinylated human, murine or cynomolgus TnC was injected on a SA chip, with the aim to immobilize up to 100 RU using the immobilization wizard function.
(§3) An additional dissociation step of 1800s was performed for the highest concentration of IgG. After each step the surface was regenerated following two sequential injections of 10 mM glycine pH2.1 for 60 s. Bulk refractive index differences were corrected for by subtracting the response obtained in a reference flow cell without TNC. Affinity and avidity were calculated using the Langmuir 1:1 kinetic model. However, as the KD for the 1:1 fitting of bivalent interactions is an apparent value only, it should only be used for comparisons.

[2] = molecular target: T2, huTNC (recombinant human TnC antigen); assay: as above
Method: as §1, §2, §3

[3] = molecular target: T3, cynoTNC (recombinant cynomolgus TnC …); assay: as above
Method: as §1, §2, §3

[4] = molecular target: T6, human TnC on TnC-expressing U87-MG glioblastoma cells (human, UniProt P24821 23-2201); assay: flow cytometry on TnC-expressing U87-MG cells
T6 construct: whole, on cells; also called human-TnC expressing U87-MG
T6 sequence (P24821 23-2201): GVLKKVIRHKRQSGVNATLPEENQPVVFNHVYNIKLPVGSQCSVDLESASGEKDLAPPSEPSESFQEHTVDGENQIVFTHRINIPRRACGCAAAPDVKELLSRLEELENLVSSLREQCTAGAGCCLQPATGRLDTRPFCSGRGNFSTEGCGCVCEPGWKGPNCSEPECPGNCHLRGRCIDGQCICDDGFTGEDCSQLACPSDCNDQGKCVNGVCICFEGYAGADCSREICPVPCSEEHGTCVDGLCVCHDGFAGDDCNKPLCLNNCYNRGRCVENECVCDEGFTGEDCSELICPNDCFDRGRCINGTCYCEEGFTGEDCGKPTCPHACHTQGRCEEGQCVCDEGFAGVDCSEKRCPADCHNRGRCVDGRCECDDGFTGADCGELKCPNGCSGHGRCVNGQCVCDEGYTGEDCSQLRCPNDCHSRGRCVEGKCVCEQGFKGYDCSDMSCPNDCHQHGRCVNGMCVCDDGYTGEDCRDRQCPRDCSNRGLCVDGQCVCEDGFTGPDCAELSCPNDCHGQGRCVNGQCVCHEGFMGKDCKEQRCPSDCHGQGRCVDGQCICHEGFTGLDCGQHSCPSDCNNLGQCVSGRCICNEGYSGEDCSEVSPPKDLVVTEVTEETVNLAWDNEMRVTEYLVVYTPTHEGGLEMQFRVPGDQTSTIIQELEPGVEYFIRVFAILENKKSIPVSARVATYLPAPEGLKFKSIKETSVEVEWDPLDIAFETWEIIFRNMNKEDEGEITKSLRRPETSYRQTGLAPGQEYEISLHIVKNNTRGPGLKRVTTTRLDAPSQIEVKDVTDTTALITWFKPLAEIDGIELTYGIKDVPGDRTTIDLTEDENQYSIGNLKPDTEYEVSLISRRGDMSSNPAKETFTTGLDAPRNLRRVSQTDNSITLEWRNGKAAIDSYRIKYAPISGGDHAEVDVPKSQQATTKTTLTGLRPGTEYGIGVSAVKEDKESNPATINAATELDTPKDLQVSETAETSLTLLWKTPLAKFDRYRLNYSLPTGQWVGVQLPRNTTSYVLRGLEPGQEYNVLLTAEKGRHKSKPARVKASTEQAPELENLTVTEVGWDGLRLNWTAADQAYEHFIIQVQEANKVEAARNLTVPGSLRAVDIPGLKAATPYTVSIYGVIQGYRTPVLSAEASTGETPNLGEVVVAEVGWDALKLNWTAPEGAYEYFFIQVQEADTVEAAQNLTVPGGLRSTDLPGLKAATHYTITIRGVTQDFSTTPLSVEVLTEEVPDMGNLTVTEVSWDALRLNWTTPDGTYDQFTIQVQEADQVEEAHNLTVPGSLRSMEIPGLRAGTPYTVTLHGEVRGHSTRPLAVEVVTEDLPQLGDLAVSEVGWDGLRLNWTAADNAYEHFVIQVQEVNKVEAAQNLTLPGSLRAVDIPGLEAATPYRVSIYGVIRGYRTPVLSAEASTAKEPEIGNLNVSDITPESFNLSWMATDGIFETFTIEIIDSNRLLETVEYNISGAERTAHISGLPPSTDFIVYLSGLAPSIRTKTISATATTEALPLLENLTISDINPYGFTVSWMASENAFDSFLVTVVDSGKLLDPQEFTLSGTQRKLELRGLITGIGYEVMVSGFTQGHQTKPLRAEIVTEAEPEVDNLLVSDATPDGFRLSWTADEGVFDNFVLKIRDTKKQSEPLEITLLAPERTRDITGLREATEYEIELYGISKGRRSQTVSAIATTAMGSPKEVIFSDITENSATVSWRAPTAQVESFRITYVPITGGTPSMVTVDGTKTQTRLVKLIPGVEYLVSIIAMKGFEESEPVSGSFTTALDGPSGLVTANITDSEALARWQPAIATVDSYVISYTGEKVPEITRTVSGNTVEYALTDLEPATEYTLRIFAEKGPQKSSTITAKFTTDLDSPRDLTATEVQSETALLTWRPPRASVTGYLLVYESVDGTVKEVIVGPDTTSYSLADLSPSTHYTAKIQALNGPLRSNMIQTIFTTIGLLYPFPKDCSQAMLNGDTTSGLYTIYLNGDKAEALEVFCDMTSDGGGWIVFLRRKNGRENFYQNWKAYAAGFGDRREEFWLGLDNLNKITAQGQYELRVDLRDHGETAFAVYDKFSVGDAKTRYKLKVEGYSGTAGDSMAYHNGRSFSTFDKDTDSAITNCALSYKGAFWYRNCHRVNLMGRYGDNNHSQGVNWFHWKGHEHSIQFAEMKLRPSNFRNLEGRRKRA
Method: For binding assays on TnC expressing tumor cells the human glioblastoma cell line U87-MG (ATCC HTB-14) was used.
Cells were washed once with 200 μL DPBS. […] Cells were washed once with 200 μL/well 4° C. cold DPBS buffer and resuspended in 50 μL/well of 4° C. cold FACS buffer (DPBS supplied with 2% FBS, 5 mM EDTA pH8 (Amresco, Cat. No. E177) and 7.5 mM Sodium azide (Sigma-Aldrich S2002)) containing TnC-targeted 4-1BB split trimeric ligand Fc fusion antigen binding molecules or their controls at a series of concentrations, followed by incubation for 1 hour at 4° C. […] Cells were washed twice with 200 μL/well 4° C. FACS buffer and cells were fixed in 50 μL/well DPBS containing 1% Formaldehyde (Sigma, HT501320-9.5L). Cells were resuspended in 100 μL/well FACS-buffer and acquired using the MACS Quant Analyzer 10 (Miltenyi Biotech).
Gates were set on living tumor cells and geo means of fluorescence intensity of PE-conjugated AffiniPure anti-human IgG IgG Fcγ-fragment-specific goat F(ab′)2 fragment were blotted against the titrated concentration of TnC-targeted 4-1BB split trimeric ligand Fc fusion antigen binding molecules or their controls.

[5] = molecular target: T4, GST huTNC fn5 A1234 BC fn6 B; assay: SPR ProteOn XPR36, biotinylated antigen on NLC chip, Fab as analyte, 25 C
Method: (§4) Immobilization of antigens (ligand): Recombinant antigens were diluted with PBST (10 mM phosphate, 150 mM sodium chloride pH 7.4, 0.005% Tween 20) to 10 μg/ml, then injected at 30 μl/minute in vertical orientation. Injection of analytes: For ‘one-shot kinetics’ measurements, injection direction was changed to horizontal orientation, two-fold dilution series of purified Fab were injected simultaneously along separate channels 1-5, with association times of 200 s, and dissociation times of 240 s, respectively. Buffer (PBST) was injected along the sixth channel to provide an “in-line” blank for referencing. Association rate constants (kₒₙ) and dissociation rate constants (koff) were calculated using a simple one-to-one Langmuir binding model in ProteOn Manager v3.1 software by simultaneously fitting the association and dissociation sensorgrams. The equilibrium dissociation constant (KD) was calculated as the ratio koff/kₒₙ.

[6] = molecular target: T5, GST TNC hu fn5 B-C fn6 B; assay: as above
Method: as §4

Binder	Kd [1] [pM]	Kd [2] [pM]	Kd [3] [pM]	EC50 [4] [pM]	Kd [5] [pM]	Kd [6] [pM]
anti-TnC 18D4 wild type human IgG1 (antibody, also called 18D4 IgG wt Fc; a-TnC(18D4) huIgG1) heavy: not shown light: DIQMTQSPSTLSASVGDRVTITCRASQSISSWLAWYQQKPGKAPKLLIYDASSLESGVPSRFSGSGSGTEFTLTISSLQPDDFATYYCQQNKKFPSGTFGQGTKVEIKRTVAAPSVFIFPPSDEQLKSGTASVVCLLNNFYPREAKVQWKVDNALQSGNSQESVTEQDSKDSTYSLSSTLTLSKADYEKHKVYACEVTHQGLSSPVTKSFNRGEC	61	93	36			
anti-TnC(18D4) huIgG1 P329G LALA (antibody, also called 18D4 IgG PG/LALA; 18D4 IgG PGLALA) heavy: not shown light: DIQMTQSPSTLSASVGDRVTITCRASQSISSWLAWYQQKPGKAPKLLIYDASSLESGVPSRFSGSGSGTEFTLTISSLQPDDFATYYCQQNKKFPSGTFGQGTKVEIKRTVAAPSVFIFPPSDEQLKSGTASVVCLLNNFYPREAKVQWKVDNALQSGNSQESVTEQDSKDSTYSLSSTLTLSKADYEKHKVYACEVTHQGLSSPVTKSFNRGEC	30	32	11	4240		
anti-TnC clone 11C7 rabbit IgG (antibody, V domains shown, also called llC7 rb IgG; 11C7 (rb IgG)) VH: not shown VL: SSELTQDPAVSVALGQTVRVTCQGDSLRSYYASWYQQKPGQAPVLVIYGKNNRPSGIPDRFSGSSSGNTASLTITGAQAEDEADYYCNSINSTRNEVFGGGTKLTVL		29				
anti-TnC clone 11C7 Fab (Fab, V domains shown, Bacterially expressed purified Fab from the lambda-DP47 phage library format (lambda CL, CH1, tags)) VH: not shown VL: SSELTQDPAVSVALGQTVRVTCQGDSLRSYYASWYQQKPGQAPVLVIYGKNNRPSGIPDRFSGSSSGNTASLTITGAQAEDEADYYCNSINSTRNEVFGGGTKLTVL					2300	1000
